According to PMC4666372 (Nucleic Acids Research, 2015):

Target: T1, His-tagged TopA67 (N-terminal region of TopA, 67 kDa, residues 1-597) (E. coli, UniProt P06612 1-597)
T1 construct: DNA topoisomerase I (TopA) of E. coli, residues 1-597; source: E. coli BL21(DE3), 1 mM IPTG 3 h 37°C, purified (Ni-NTA agarose); not shown: His-tag, N-terminal, kept
T1 sequence (looked up): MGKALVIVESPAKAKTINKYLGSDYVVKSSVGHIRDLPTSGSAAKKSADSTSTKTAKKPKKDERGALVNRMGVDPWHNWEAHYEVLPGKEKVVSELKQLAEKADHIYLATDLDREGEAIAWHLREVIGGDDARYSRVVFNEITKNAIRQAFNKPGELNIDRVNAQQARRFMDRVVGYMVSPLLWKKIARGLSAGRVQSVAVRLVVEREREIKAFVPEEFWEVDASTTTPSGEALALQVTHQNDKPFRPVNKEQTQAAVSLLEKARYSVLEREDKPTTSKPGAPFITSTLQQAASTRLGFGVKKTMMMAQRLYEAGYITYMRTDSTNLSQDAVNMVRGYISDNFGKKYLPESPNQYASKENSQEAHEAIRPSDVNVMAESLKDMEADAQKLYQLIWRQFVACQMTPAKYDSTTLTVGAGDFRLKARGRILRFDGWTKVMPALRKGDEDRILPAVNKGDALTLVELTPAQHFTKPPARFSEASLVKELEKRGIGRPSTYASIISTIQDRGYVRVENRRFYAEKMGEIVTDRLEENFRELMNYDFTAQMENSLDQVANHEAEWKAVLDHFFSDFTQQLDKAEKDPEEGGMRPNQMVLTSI
Assay: co-IP; purified PrS-TopAI and TopA, TopA67 or TopA14 at a molar ratio of 1:5 in buffer A (20 mM Tris-HCl pH 8.0, 150 mM NaCl), in the absence of DNA; anti-protein S antiserum, protein G agarose, 4°C; western blot with anti-His antibody
Settings: both partners purified

B1: PrS-TopAI (N-terminal domain of Protein S fused to TopAI, His-tagged) (natural protein)
chain: not shown
notes: also called PrS-YjhX; YjhX
B1: binds.
